# Data taken from article PMC9508527, “Two-component carnitine monooxygenase from Escherichia coli: functional characterization, inhibition and mutagenesis of the molecular interface” (Bioscience Reports, 2022).
# Columns and labels:
# Test in all cases: cell-based or functional assay
# [1] = molecular target: T1, YeaW variant R83Q (E. coli, UniProt P0ABR7 1-374, R83Q)
# T1 sequence (looked up): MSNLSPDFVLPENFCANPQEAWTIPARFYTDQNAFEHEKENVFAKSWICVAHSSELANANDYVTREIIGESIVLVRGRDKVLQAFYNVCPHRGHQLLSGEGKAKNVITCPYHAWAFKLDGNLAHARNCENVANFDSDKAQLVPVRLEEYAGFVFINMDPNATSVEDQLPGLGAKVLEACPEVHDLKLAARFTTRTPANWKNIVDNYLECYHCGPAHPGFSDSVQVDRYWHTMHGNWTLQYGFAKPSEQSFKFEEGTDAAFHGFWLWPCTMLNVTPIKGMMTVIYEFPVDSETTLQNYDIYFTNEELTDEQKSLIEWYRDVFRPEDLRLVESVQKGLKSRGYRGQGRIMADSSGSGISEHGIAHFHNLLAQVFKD
# [2] = molecular target: T2, YeaW variant D135S (E. coli, UniProt P0ABR7 1-374, D135S)
# T2 sequence (looked up): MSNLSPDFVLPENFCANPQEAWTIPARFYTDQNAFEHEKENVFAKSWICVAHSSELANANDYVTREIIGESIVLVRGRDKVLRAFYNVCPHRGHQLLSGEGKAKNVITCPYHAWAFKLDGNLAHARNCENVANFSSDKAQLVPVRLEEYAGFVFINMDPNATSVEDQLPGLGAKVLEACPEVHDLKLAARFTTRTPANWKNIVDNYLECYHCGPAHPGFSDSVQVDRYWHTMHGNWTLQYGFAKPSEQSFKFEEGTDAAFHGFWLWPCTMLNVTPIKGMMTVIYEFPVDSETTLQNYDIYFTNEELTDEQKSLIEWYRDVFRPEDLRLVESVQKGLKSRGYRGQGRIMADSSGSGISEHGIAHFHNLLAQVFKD
# [3] = molecular target: T3, YeaW variant E330S (E. coli, UniProt P0ABR7 1-374, E330S)
# T3 sequence (looked up): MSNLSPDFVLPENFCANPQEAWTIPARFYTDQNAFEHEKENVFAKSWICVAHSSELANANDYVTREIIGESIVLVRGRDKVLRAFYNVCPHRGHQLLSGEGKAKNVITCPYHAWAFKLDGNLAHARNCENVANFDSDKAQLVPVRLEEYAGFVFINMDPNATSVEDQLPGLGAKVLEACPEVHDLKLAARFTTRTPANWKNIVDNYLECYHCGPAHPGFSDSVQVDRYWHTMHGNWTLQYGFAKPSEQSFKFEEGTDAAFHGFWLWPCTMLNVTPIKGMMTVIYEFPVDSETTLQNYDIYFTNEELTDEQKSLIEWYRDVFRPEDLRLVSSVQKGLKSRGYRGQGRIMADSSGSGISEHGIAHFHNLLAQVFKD
# [4] = molecular target: T4, YeaW variant E330K (E. coli, UniProt P0ABR7 1-374, E330K)
# T4 sequence (looked up): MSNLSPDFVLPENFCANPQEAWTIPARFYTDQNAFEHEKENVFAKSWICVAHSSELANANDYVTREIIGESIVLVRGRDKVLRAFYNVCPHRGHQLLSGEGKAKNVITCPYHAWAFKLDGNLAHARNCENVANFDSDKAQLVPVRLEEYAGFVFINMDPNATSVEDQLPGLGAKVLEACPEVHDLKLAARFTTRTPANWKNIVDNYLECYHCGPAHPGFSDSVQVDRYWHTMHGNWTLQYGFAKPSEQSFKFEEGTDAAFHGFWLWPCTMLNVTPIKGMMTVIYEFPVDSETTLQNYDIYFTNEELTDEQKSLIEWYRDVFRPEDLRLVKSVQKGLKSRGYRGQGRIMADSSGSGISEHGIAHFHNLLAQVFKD
# [5] = molecular target: T5, YeaW variant R83K (E. coli, UniProt P0ABR7 1-374, R83K)
# T5 sequence (looked up): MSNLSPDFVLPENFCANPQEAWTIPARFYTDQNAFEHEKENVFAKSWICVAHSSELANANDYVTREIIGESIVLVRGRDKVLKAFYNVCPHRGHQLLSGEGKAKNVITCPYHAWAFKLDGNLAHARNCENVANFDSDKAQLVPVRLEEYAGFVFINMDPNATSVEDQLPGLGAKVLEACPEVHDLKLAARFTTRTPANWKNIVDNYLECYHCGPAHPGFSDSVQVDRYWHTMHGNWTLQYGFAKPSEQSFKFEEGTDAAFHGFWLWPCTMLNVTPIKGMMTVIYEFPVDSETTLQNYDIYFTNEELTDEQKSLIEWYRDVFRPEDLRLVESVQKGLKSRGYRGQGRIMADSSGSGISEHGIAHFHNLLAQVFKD
# [6] = molecular target: T6, YeaW variant D221S (E. coli, UniProt P0ABR7 1-374, D221S)
# T6 sequence (looked up): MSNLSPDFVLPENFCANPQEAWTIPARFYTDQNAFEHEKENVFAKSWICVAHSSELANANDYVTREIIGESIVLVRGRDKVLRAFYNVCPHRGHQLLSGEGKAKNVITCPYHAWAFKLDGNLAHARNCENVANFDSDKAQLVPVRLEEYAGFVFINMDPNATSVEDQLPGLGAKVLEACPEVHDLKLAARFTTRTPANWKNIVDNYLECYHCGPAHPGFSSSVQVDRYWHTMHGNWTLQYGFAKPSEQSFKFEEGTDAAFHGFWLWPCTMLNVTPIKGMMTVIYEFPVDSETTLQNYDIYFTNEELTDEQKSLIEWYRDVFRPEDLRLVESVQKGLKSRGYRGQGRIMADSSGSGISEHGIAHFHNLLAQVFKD
# [7] = molecular target: T7, YeaW variant K138E (E. coli, UniProt P0ABR7 1-374, K138E)
# T7 sequence (looked up): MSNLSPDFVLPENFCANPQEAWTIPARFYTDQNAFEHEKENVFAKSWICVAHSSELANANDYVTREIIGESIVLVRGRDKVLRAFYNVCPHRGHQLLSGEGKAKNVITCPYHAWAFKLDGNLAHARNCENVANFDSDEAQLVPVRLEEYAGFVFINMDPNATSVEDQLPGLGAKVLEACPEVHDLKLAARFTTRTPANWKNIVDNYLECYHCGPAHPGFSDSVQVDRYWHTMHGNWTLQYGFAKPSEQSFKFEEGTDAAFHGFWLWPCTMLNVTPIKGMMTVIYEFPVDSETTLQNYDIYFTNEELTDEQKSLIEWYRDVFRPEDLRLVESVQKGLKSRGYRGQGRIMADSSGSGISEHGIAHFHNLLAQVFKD
binder,measurement,setting,value
"YeaX, reductase component of carnitine monooxygenase from E. coli (enzyme, UniProt P76254 1-321, looked up) MSDYQMFEVQVSQVEPLTEQVKRFTLVATDGKPLPAFTGGSHVIVQMSDGDNQYSNAYSLLSSPHDTSCYQIAVRLEENSRGGSRFLHQQVKVGDRLTISTPNNLFALIPSARKHLFIAGGIGITPFLSHMAELQHSDVDWQLHYCSRNPESCAFRDELVQHPQAEKVHLHHSSTGTRLELARLLADIEPGTHVYTCGPEALIEAVRSEAARLDIAADTLHFEQFAIEDKTGDAFTLVLARSGKEFVVPEEMTILQVIENNKAAKVECLCREGVCGTCETAILEGEADHRDQYFSDEERASQQSMLICCSRAKGKRLVLDL",L-carnitine depletion activity (wild type = 100%),[1],51%
same,O2 depletion activity (wild type = 100%),[1],59%
same,L-carnitine depletion activity (wild type = 100%),[2],106%
same,O2 depletion activity (wild type = 100%),[2],106%
same,L-carnitine depletion activity (wild type = 100%),[3],92%
same,O2 depletion activity (wild type = 100%),[3],85%
same,L-carnitine depletion activity (wild type = 100%),[4],55%
same,O2 depletion activity (wild type = 100%),[4],67%
same,L-carnitine depletion activity (wild type = 100%),[5],76%
same,O2 depletion activity (wild type = 100%),[5],79%
same,L-carnitine depletion activity (wild type = 100%),[6],91%
same,O2 depletion activity (wild type = 100%),[6],99%
same,L-carnitine depletion activity (wild type = 100%),[7],100%
same,O2 depletion activity (wild type = 100%),[7],102%
